Substitutions are numbered along the chain they refer to.

The source of these data is patent publication US20260275311, “CRISPR NUCLEASE POLYPEPTIDES AND GENE EDITING SYSTEMS COMPRISING SUCH” (ARBOR BIOTECHNOLOGIES, INC., published 2026).

Assay in all cases: cell_activity
Holding throughout (settings): PAM TTAAA; HEK293T

The subject of one series is T1, Nuclease M E401R E401R.
T1 sequence: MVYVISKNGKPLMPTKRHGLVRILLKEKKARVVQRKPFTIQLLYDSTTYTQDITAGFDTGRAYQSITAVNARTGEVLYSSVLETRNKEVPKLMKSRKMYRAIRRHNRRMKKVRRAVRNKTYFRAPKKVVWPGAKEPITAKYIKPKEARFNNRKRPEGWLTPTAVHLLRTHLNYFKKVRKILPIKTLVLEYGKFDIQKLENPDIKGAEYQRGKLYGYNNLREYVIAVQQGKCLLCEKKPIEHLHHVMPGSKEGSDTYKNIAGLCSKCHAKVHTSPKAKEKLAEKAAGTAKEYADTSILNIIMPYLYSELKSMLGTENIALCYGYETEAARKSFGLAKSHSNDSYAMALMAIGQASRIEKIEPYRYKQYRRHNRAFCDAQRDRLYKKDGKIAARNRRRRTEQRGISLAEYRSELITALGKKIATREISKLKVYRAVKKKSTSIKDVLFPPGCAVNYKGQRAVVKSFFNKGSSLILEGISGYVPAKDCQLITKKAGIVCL

The next series has as its system T2, Nuclease M E83R E83R.
T2 sequence: T1 sequence with E83R, R401E

The subject of the next series is T3, Nuclease M E88R E88R.
T3 sequence: T1 sequence with E88R, R401E

The next series has as its system T4, Nuclease M L92R L92R.
T4 sequence: T1 sequence with L92R, R401E

The test system of a further series is T5, Nuclease M P481R P481R.
T5 sequence: T1 sequence with R401E, P481R

The subject of a further series is T6, Nuclease M S95R S95R.
T6 sequence: T1 sequence with S95R, R401E

For the sequence “GAGCCUGGUCCAUGGAGAGUGUCAACUACCCCCGUCUAAAGACGGAGGCAUGAGGUUUCGUAACCAAGUGUUGUACCUGCGGGUACAGUAGUUGAACAGGCGGCGAUGCGGCUGGGCACUCCAGGAUGCCACUCCCAGUCCCGGACACUGCCGACGAGCCGCAUCAAGCCGGGGGAGACCAACCGGCUAACGAUAGCCGAGCAAUUACCUAAAAAGAGGUGCAAAGGAAAUGGUAU / GAGCCTGGTCCATGGAGAGT / ACTCTCCATGGACCAGGCTC [Nuclease M VEGFA-T5 guide ; Nuclease M VEGFA-T5 target]”, the binding signal (fold vs Nuclease M) in the series on Nuclease M E401R E401R was 1.77; in the series with Nuclease M E83R E83R, 1.71; with Nuclease M E88R E88R, 2.09; in the series on Nuclease M L92R L92R it was 1.81; in the series with Nuclease M P481R P481R, 1.6; in the series with Nuclease M S95R S95R it was 2.05.
